Data on 21 sequences can be found in a protein production outcome set (Wang et al. 2014).

The data set in a line: label from the status in PepcDB records.

As for “MDLLEYQVKEWFGEIGIPVLPSQRIDHPTDLKRLKIRYPIVLKSQVHAGEREKVGGVRMVETTIDAIAAAQTIFNLSIWGELPEVLLAESKYNSHQEFYLAVVLDTAVCRPVLLGSTEADIDLELADQKMQYVVVEQEFSPFYARRLALKMGLQGTLMQSVSTVLEKMYQLFVQKDLDLVEINPLGVNLAGEVMALNGKVGVNERAIGRHPEIAAMAAKIIPRHYDKSFSNGRDWNNLEKQRRIGILGNGTGSILATYDLVASGGGKPGICLNLRHAAITDLSPTKFGDRLTKGLNTLAADKNTQVILINLLGSIPQPEEAAQAIAQFIQQNKGEYPPSIAKSNGKNLSQHQSPQLVIRLAGSELNAAKEVLAALQTHEEGLILVEDLDEAVATAVRLTKSHAYKKVS”, the protein production result is reported as “failed”.

Turning to “MDLLLKGGWVVTQERVEQADIAVEGEKIAAIGPDLEARAAAVRDVTGKYILPGAIDAHVHYQMPIGELLTADDWFTGTRLAACGGVTTVIDYAEPAGPAEPLTEALAKRLEEAREQACVDYGLHQVVLPGQEEDTGELAKVIEQGVTSFKVFTTYKQCLGYAAIGRLLKQARRLGALVTVHCEDHDLVTARRRELEATGQTDPAYHANSRPAAAEVKAIEKVIRQAAAAGAPVYIVHVSTGGGAELIAAARARGQQVFGETCPHYLLLTEERYAGPDSRLFLMCPPLRTVKDNRILWQHLASGDLQVVATDHCSYSPEQKAAGTAFYNTPSGVPGTETLLPLLYSYGVRQGRLTLPQMVRVLATNPARLFGLYPRKGCLAPGSDADLVVFDPSQEVILKASDLHSAAAYTIFEGFALQGYVEATYLRGRLIYDLGRFLGRAGQGEFIPGKITVL”, the protein production entry is “failed”.

In the case of “MDLLRGSDYVGDGAWFRAEALQEIGAFAEAPDADSYDALLRIHDRYGAMVIGHIPDMLLHAPSRGTADGSGQRAALDAHLARNGGGADIEAGPAAGTRRIRYPAPEQARLSIIVADAGDGFHLSPCIDALQASLGGCACEILAIAADGEPGDAAKLLRCDPGLGLAARFQLGAEAASGDFLLFIDSRVELAQPDGLQALLGLAARPEVGAAAPRLLRPDGEALWRGPLLIGAGEGAAALFCDAGASEAGHLNRQAVEHNPGALRLECLLMAKAFYQQIGGMDASLPTLLDTAVDLGLRIRAAGRLPVWTPFVSARRHGALDVSEPPETCDADALSLRWNGWLGQDPAHNRHLSLAADKAFQIEDVYSAQWDASFHERTRVLALPAESKATEARMASPFRILQEDCQCQLTQIPAGQRLPSAGEIERMAPDALLMSARFDSASLAWLRGYRQRRPDVLAVLMLDKLDFGAGTTHRYGHSLLQAMAGMADRVIVPTESLYRMALAFADDVRLVPDGLEEARWFELQSLRRVGKKPRVGWVGSAAEAPDLLMLSGIILATAAELDWIVLGDCPEVLKPCLAEYHAFDLSSDDYPTRLASLSLDMAVMPKAATLANETGSPLRMFEFGALGVPVICSAVGELGLSPAPVARVENDVSSWGEALRELARDAAAAAQAGDGLRAWVRENCGLKRHLPLWQQAISR”, the protein production result is “failed”.

In the case of “MDLNRMGKDEYYVQITVDGKEVHSKADNGQKYKDYEYKLTGFDKDGKEKELEFTAQKNLRKEAFLRVYHSDKKGVSAWEEVKKDELPAKVKEKLGVKLEHHHHHH”, the protein production entry is “not failed”.

On to “MDLPVMPPVKPMLAKSVAKIPPDMQYEAKWDGFRAIVFRDGTEVELGSRTGKPLTRYFPELVEALRDRLPERCVIDGEIVIARDGRLDFDALTERIHPAESRVRMLAEKTPASFVAFDLLALADDSLLDTPLTERRALLESALSGVTAPVHVAPATTDREVAEQWFEQYEGAGLDGVIAKPLTLRYRQDERAMFKVKHERTADVVVAGYRLHKSGPVVGSLLLGLYDDRGALQHVGVSAAFPMKRRAELVEELEPLRMEDAAGHPWAAWSNEAAHETARLPGAPSRWSGKKDLSWVPLRPERVAEVAYDHMENGARFRHTARFRRWRPDRTPESCTYAQLEEPVSYDLTEILGSRGLEHHHHHH”, for which the protein production result was “not failed”.

As for “MDLRAIAMGLAFAFMWSSAFSSARIIVADASPLFSLACRFLISGLLGVIIARAMGQTWRLTRNQWKATIVFGICQNALYLGLNFYAMQTVEASVAAIIASTMPLLVALASWGLFGERLPALGIAGLLAGFLGVALIMGARIGAGVDLFGVLLCGLGALALAAATLALRGATSGGNFMMVVGLQMLVGSAVLFLATPIFETVHVTPTLPLALAFAYTTLVPGLTATFVWVLLLNRIGAIRAATFHFLNPVFGVAIAAALLGERLGALDAIGVAITTAGILAVQLSRQASARKP”, the protein production result was “failed”.

In the case of “MDLWDRFCVNLHTRKITLEDESQKRSMDLRLLHGVAYGHSWFGKWGYRFCSGSFGVEEHHYHRAIAFLTSISLVDDITANFRENKANLNIGDIVRCYRDMSEIQLTTLQDLLRFMLTIKSRAPPIRIPIGKIEAPSVVLPSMKAYGTRACPQVKQCPKDKEKSVKCRKFALPLPLQACFHFPFRSSMTLLSGSFRS”, the protein production entry was “not failed”.

Regarding “MDMDEKDVVETEEESFAELFEKSNSETQRLRPGSKVEGKILKIGAEWVFIDIGKKGEGVMERKELQDAEGNLTVAEGDTITAWFTGSVRNEMRFTTKLGAGAAANAQLEEAHRSGIPVEGFVVKEIKGGFEVRLSGTTRAFCPFSQISLRRAENPAEFVGKHLLFKVTEYSERGRNIVLSHRQILEEEQRVKREALKEVLLEGMTVTGTVTRLADFGAFVDLGGVDGLIPVSEVGWTRVKHVRDVLSVGEQVSVVIKKIDWEAGKISLSLKDTLADPWTTVAEQFPEGSYHTGTVARLAAFGAFVTLAPGIDGLIHISKLGKGKRINHPSDVLKEGETVEVKVDGVDREARRLSLALAEVSRAAEEEEKSVASFRQQATSSSKESMGSFGDLLKAKIEEKRLEHHHHHH”, the protein production entry is “failed”.

Consider “MDMFGVAVLIFLVTDPFGNIAVFLAALKGVAPGRRLRVAFRELAFALGLLLLFLTLGEHILSGLGLSREATGIAGGIILFVIAMRLIFPSPQGLLGEVPDGEPLLVPLATPAVAGPSALAMLITLRTTFDGPLWELYLAVVLAWAATALILLQAAFLQRFLGPRGLTAIERLAGMLLIMLSVDMLLDNLRSVLHIAA”, for which the protein production entry was “failed”.

As for “MDMKKYILSLSLLTVINSSAIATTQEGEEAYNKGYYEKAFILLSPEADKGDAKAQYLLGKMYYNAQGVTYNPEKTEQLLLASANQGNVDAQVLLAGFYWYLNTPEGYKKAFEWYQKAADQNNADGQYGLGYMYDTGTGVPQNSDTAMVWYKKAAEQGNSNAALAIGYNYDTGTGVKKDKTQALNWYAKAADLGNASAQYNLGLMYEQGDGVPKDYQKAAEYFEKAANQGHAKSQLELGYLYDSGKLGKSDLQKAAFWYQKSADLGNANAQFNLADMYFYGDGVGKSLEQSVYWMQKAAEQGYGKAQNQLGIYYRDGIGVAADPVKAYAWFTAAKNNGFEKAASNASDLEKSMNPEDLSKARILGQQYTDNYKAKK”, the protein production result is “failed”.

As to “MDMKRRIHLELRNRTPAAVRELVLDNCKSNDGKIEGLTAEFVNLEFLSLINVGLISVSNLPKLPKLKKLELSENRIFGGLDMLAEKLPNLTHLNLSGNKLKDISTLEPLKKLECLKSLDLFNCEVTNLNDYRESVFKLLPQLTYLDGYDREDQEAPDSDAEVDGVDEEEEDEEGEDEEDEDDEDGEEEEFDEEDDEDEDVEGDEDDDEVSEEEEEFGLDEEDEDEDEDEEEEEGGKGEKRKRETDDEGEDD”, the protein production result is given as “not failed”.

“MDMKTKLQTIIGMFQITAWDETSYFESDNGAKLTQAVITQSYQGVLQGHSEIRYLMSYQDNANATFVGFEHFTGSLGDKKGSFILQHKGLFAAGVASSEFELVERSATGDFVHLVGKGHFVSTENGQANYQITLQDS”: the protein production result was “not failed”.

With “MDMTYYDHGTPAERWERARMFFDAKDYAAAARVLDGLVAQVPEQTGPRLLLARSYYHSAQLRRAEAELRVVVERDPVEHYARLMLGRTLERQGRQEEADAQLRIASALAGDFAEL”, the protein production entry is “failed”.

For “MDMYSMKISEGVERIDGVTANSYLLTLDGKNILIDTGTAGGGKKIIDYFNKNGTKPDYVIVTHHHADHVGGLKEISERFNPEIYVPDLEMKIIRGEEDPPKPRSFFGRMITGMLKFEPVKDVKPVSKASIPGIEEMATPGHTIGSTSYIVEDLHILFSGDAAVESGGELKINKSFSYEINSAERSLEIIKGMKGYLVLPGHGDKVQLLEHHHHHH”, the protein production entry was “not failed”.

Regarding “MDNEEYYKILGVAKSASQDEIKHAYRKMSKKYHPDLNHQPGAEDKYKQVQEAYETLGDPQKRAAYDQYGKAGANANNGQGGFGGFQQSGFNFNGQDFGDFSDIFSQMFGGSFNPNAPRKGRDLQYRINLTFEEAVFGKETEIKYVRQESGGNSKEHTVKVTIPAGVETGQQMRLAGQGEAGTHGGPYGDLYVEFIVGKSKDGFERQGANIYLEEPINFVQAALGDKIKVKTVHGDVELTIPAGTQTDTEFRLRGKGAPYVNSSRIGDEYVKVIVQVPKRLNEKEKKALKTYADLRGENVNPQKRRGLFG”, the protein production result was “failed”.

Turning to “MDNKVSILNQPKPFKMIFFIELWERFGYYGLQGILAVYFVDKLGFSMQDSFVTFGAFAALVYGLVSVGGYVGDYVLGTKRTMVFGAVVLALGYFLMGFSILNPNFIYLALGAIAVGNGLFKANPSSLLAKCYEKGDSRLDGAFTLYYMSINIGSLVSLSISPVIANNYGYEYAFVICGLGLIASLFSYFSLRSTVQGIGSEPDALPLNKTKALIVLIGTVASTLVCAWLLQNIMMANLALGLIGVGVVGFFLKETFKETGEQRNKMIVAFILMLQAIIFYVLYAQMPTSLNFFAINNVHSELFGIDINPVSLQALNPFWVIFCSPILAYLYTYYGNQNKDLSMPGKFTVGMFMCAFGFLSVAAAGNWFADQAGMVSVWWMILVYLFQSLGELMISGLGLAMVASLVPQRLMGFTMGAWFLTQAASFIIGGYVATFSATPEHLTAPLDTLPVYTELFQNIGFVTLAVAIVMAFTAPKLNKMMTSSQPEDAELVEQP”, the protein production entry is “failed”.

“MDNLFTPSAKSVLVLAQEQAKYFKHQAVGTEHLLLALAIEKNGIANKVLQQYAVSEDDIREEIERFTGYGTLSNVGKDTYLPYSPKAKEILSVAGDEAKRLGANKIGTEHLLLAMLSDESILSSRILMNLNLDLGQTRKVVLRKLG”: the protein production entry is recorded as “failed”.

With “MDNMAIADRRRLRRKLTFWRVAAVLLLVVGAFGLYRFFWQGPQQSAKPHIARIEVSGLITDNTELLERLDKIAKSDNVKGLIVSISSPGGTTYGGERIFKVIRSVAEKKPVVSDVRTLAASAGYMIASAGDVIVAGETSITGSIGVIFQYPQLGQLMEKLGVSLQEIKSSPMKAEPSPFHEAPEEAKTMIRAMVMDSYGWFVDLVADRRKLPREEVLKLADGSIFTGRQALANKLVDTLGGEKEVRAYFETRGVAKDLPIVEWRAPSSNSPFALFSVAQIAKLLGYDDLIPFAGPSQLGADKLFLDGLVSVWQVEPRLEHHHHHH”, the protein production entry is given as “not failed”.

For the sequence “MDNSGKEAEAMALLAEAERKVKNSQSFFSGLFGGSSKIEEACEIYARAANMFKMAKNWSAAGNAFCQAAQLHLQLQSKHDAATCFVDAGNAFKKADPQEAINCLMRAIEIYTDMGRFTIAAKHHISIAEIYETELVDIEKAIAHYEQSADYYKGEESNSSANKCLLKVAGYAALLEQYQKAIDIYEQVGTNAMDSPLLKYSAKDYFFKAALCHFCIDMLNAKLAVQKYEELFPAFSDSRECKLMKKLLEAHEEQNVDSYTESVKEYDSISRLDQWLTTMLLRIKKTIQGDEEDLR”, the protein production entry is listed as “not failed”.

For the sequence “MDNWQDITDDRLVRPIHPGEVIADILDDLDINTANFAEILGVSNQTIQEVINGQRSITVDIAIRLGKALGNGPRLWLNLQQKVDLWYALQSHKEEYEQVMTLV”, the protein production result is on record as “not failed”.

Consider “MDPEEEAFDAIRRFARAENINAASVTAIGAFATATLAFFDLKTQDYQEIPVAEQSEVLTLLGDITLDENGVPNPHLHVVLGFADGSTRGGHFLKGLVRPTLEVVIRETPAELRRSYNREFGIALIDPAKLEHHHHHH”, for which the protein production entry is “not failed”.
